How the values were obtained:
[1] = substrate: N[C@@H](CO)C(=O)O; assay: purified protein; conditions: ADP co-substrate, MgCl2, 50 mM Tris-HCl pH 7.5, 85 °C (standard assay; 20 mM each ADP and MgCl2)
[2] = substrate: Nc1ncnc2c1ncn2[C@@H]1O[C@H](COP(=O)(O)OP(=O)(O)O)[C@@H](O)[C@H]1O; assay: HPLC of AMP formed from ADP; assay type: biochemical, Thermococcus kodakarensis; conditions: L-serine co-substrate (50 mM in standard assay), MgCl2, 50 mM Tris-HCl pH 7.5, 85 °C

B1: TK0378 protein; ADP-dependent Ser kinase (SerK; Tk-SerK) (Thermococcus kodakarensis KOD1) (protein)
chain: MGVEKVPKYDIPTKKVDYVFIELDKMKPHEQLVQKELEAFIESVTGSGIFWKPMLLAKVPGEDMYLIVDGHHRWAGLQKLGAKRAPSVILDYFSDDVKVYTWYPAFKGDLNEVVERLKKEGLEVIEDPEAEEKAERGEIAFALVGEKSFAIPGGLEEQKKVSKVLDEMSVEGKIELIYYGLKEDAREDMAKGEIDYVFIRKAPTKEEVMELVKRGEVYSPKTTRHVLPFNPDKIDVKLEELF
notes: full coding region in pET21a(+) (NdeI/EcoRI), no tag mentioned; E. coli BL21-CodonPlus(DE3)-RIL; heat treatment, Resource Q, Superdex 200
Work on B1 yielded a Km [1] of 5.1 ± 0.5 mM, a kcat [1] of 218 ± 5 s⁻¹ and a Km [2] of 2.4 ± 0.5 mM. The kcat [2] was 204 ± 12 s⁻¹.

Reference: paper PMC5120207, “An archaeal ADP-dependent serine kinase involved in cysteine biosynthesis and serine metabolism” (Nature Communications, 2016)
